From patent publication US20200207850A1 (MacroGenics, published 2020)

Experiments:
[1] = target: T1, CD8 on human T cells (PBMC) (human, UniProt P01732 22-235); test: flow cytometry, binding to human CD5+/CD4- cells (bear CD8 and CD3) (MFI)
T1 construct: whole, on cells; The CD8+ (CD5+ CD4-) cells also carry CD3; also called CD5+ CD4- gated PBMC; CD8+ T cells

[2] = target: T2, B7-H3 on A498 and JIMT-1 target cells (UniProt Q5ZPR3 29-534, limits assumed); test: cell-based or functional assay
T2 sequence (looked up): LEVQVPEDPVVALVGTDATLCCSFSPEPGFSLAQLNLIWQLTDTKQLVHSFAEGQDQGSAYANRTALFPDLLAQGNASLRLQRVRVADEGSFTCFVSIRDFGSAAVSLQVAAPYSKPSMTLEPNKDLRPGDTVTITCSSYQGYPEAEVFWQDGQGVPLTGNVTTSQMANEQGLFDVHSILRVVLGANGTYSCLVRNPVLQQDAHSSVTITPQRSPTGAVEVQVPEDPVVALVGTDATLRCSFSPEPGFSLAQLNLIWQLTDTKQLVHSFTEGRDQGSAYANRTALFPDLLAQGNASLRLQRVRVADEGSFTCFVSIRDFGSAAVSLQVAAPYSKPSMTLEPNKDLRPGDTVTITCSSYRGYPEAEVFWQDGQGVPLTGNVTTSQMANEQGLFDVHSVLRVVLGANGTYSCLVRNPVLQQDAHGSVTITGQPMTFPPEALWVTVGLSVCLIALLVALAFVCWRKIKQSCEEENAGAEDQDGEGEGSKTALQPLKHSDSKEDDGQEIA

[3] = target: T1, CD8 on human T cells (PBMC); test: flow cytometry on human PBMC, CD5+/CD4- gated cells (bear CD8 and CD3), detection PE anti-human Fc (MFI)
Method: 50 μL (4×10⁶ cells/mL) of well-mixed cells in FACS buffer containing 0.01% sodium azide were then added into corresponding wells and mixed thoroughly using a pipette. The plate was incubated in the dark for about 45 minutes at 2-8° C. At the end of the incubation, the cells were washed twice by adding 300 μL of FACS buffer to each well, centrifuging the plate at 1,200 rpm for 5 minutes, and discarding the supernatant. The cell pellets were re-suspended in 100 μL mixture of PE-conjugated goat anti-Human Fcγ 1:500 diluted, CD5-APC and CD4-PerCP5.5 in FACS buffer containing 0.01% sodium azide, and incubated in the dark for about 45 minutes at 2-8° C. At the end of the incubation, the cells were washed, re-suspended with FACS buffer, and analyzed with a BD Caliber flow cytometer. Cells were gated to CD5⁺ CD4⁺ (FIG. 9A) or CD5⁺ CD4⁻ (FIG. 9B).

[4] = target: T3, 5T4 on JIMT-1 target cells (UniProt Q13641 32-420, limits assumed); test: cell-based or functional assay
T3 sequence (looked up): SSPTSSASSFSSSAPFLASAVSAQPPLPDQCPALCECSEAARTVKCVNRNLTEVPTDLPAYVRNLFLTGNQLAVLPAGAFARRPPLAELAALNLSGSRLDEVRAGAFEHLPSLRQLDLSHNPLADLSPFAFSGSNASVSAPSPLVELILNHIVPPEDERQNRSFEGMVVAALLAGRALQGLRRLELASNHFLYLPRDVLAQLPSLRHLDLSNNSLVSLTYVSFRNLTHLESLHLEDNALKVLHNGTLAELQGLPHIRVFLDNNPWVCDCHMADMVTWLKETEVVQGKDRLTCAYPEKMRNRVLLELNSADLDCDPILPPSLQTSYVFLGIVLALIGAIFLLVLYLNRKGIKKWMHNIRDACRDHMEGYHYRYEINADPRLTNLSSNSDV

[5] = target: T1, CD8 on human T cells (PBMC); test: flow cytometry on human PBMC gated CD5+/CD4- (cells carry CD8 and CD3), detection with anti-human Fc-PE

T1 sequence (P01732 22-235): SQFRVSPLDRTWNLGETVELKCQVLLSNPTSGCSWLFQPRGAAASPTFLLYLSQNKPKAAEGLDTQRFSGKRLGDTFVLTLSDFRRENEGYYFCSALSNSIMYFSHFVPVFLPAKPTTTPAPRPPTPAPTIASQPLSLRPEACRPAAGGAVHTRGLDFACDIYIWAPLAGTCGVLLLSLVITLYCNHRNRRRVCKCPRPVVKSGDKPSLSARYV

B1: CD3 mAb 2/CD8 mAb 1/B7-H3 mAb 1 Tri-Specific Binding Molecule (other)
chain 1: DVQINQSPSFLAASPGETITINCRTSRSISQYLAWYQEKPGKTNKLLIYSGSTLQSGIPSRFSGSGSGTDFTLTISGLEPEDFAMYYCQQHNENPLTFGAGTKLELRGGGSGGGGEVQLVESGGGLVQPGGSLRLSCAASGFTFSTYAMNWVRQAPGKGLEWVGRIRSKYNNYATYYADSVKGRFTISRDDSKNSLYLQMNSLKTEDTAVYYCVRHGNFGNSYVSWFAYWGQGTLVTVSSGGCGGGEVAALEKEVAALEKEVAALEKEVAALEKGGGDKTHTCPPCPAPEAAGGPSVFLFPPKPKDTLMISRTPEVTCVVVDVSHEDPEVKFNWYVDGVEVHNAKTKPREEQYNSTYRVVSVLTVLHQDWLNGKEYKCKVSNKALPAPIEKTISKAKGQPREPQVYTLPPSREEMTKNQVSLWCLVKGFYPSDIAVEWESNGQPENNYKTTPPVLDSDGSFFLYSKLTVDKSRWQQGNVFSCSVMHEALHNHYTQKSLSLSPGK
chain 2: QAVVTQEPSLTVSPGGTVTLTCRSSTGAVTTSNYANWVQQKPGQAPRGLIGGTNKRAPWTPARFSGSLLGGKAALTITGAQAEDEADYYCALWYSNLWVFGGGTKLTVLGGGGSGGGGEVQLQQSGAELVKPGASVKLSCTASGFNIKDTYIHFVRQRPEQGLEWIGRIDPANDNTLYASKFQGKATITADTSSNTAYMHLCSLTSGDTAVYYCGRGYGYYVFDHWGQGTTLTVSSGGCGGGKVAALKEKVAALKEKVAALKEKVAALKE
heavy: QVQLVQSGAEVKKPGASVKVSCKASGYTFTSYWMQWVRQAPGQGLEWMGTIYPGDGDTRYTQKFKGRVTITADKSTSTAYMELSSLRSEDTAVYYCARRGIPRLWYFDVWGQGTTVTVSSASTKGPSVFPLAPSSKSTSGGTAALGCLVKDYFPEPVTVSWNSGALTSGVHTFPAVLQSSGLYSLSSVVTVPSSSLGTQTYICNVNHKPSNTKVDKRVEPKSCDKTHTCPPCPAPEAAGGPSVFLFPPKPKDTLMISRTPEVTCVVVDVSHEDPEVKFNWYVDGVEVHNAKTKPREEQYNSTYRVVSVLTVLHQDWLNGKEYKCKVSNKALPAPIEKTISKAKGQPREPQVYTLPPSREEMTKNQVSLSCAVKGFYPSDIAVEWESNGQPENNYKTTPPVLDSDGSFFLVSKLTVDKSRWQQGNVFSCSVMHEALHNRYTQKSLSLSPGK
light: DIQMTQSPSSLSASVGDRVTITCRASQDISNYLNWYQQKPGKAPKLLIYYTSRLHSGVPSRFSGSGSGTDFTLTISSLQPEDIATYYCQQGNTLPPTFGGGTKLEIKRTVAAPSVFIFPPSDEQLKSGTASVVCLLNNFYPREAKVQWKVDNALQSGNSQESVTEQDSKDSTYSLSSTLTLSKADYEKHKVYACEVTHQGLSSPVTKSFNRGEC
notes: Site A CD3, Site B CD8, Site C B7-H3
With B1 the “EC50 (read off the curve)” value [1] was ~2000 pM, the “EC50 (nM) of killing, CD4+ effector cells, JIMT1-luc target cells, E:T 5:1” value [2] was 0.105 nM and the “EC50 (nM) of killing, CD8+ effector cells, JIMT1-luc target cells, E:T 5:1” value [2] was 0.0053 nM. The “EC50 (nM) of killing, PanT effector cells, JIMT1-luc target cells, E:T 5:1” value [2] was 0.0113 nM.

B2: B7-H3 mAb 1/CD3 mAb 2/CD8 mAb 2 Tri-Specific Binding Molecule (other)
chain 1: DIQMTQSPSSLSASVGDRVTITCRASQDISNYLNWYQQKPGKAPKLLIYYTSRLHSGVPSRFSGSGSGTDFTLTISSLQPEDIATYYCQQGNTLPPTFGGGTKLEIKGGGSGGGGEVQLVESGGGLVQPGGSLRLSCAASGFTFSTYAMNWVRQAPGKGLEWVGRIRSKYNNYATYYADSVKDRFTISRDDSKNSLYLQMNSLKTEDTAVYYCVRHGNFGNSYVSWFAYWGQGTLVTVSSGGCGGGEVAALEKEVAALEKEVAALEKEVAALEKGGGDKTHTCPPCPAPEAAGGPSVFLFPPKPKDTLMISRTPEVTCVVVDVSHEDPEVKFNWYVDGVEVHNAKTKPREEQYNSTYRVVSVLTVLHQDWLNGKEYKCKVSNKALPAPIEKTISKAKGQPREPQVYTLPPSREEMTKNQVSLWCLVKGFYPSDIAVEWESNGQPENNYKTTPPVLDSDGSFFLYSKLTVDKSRWQQGNVFSCSVMHEALHNHYTQKSLSLSPGK
chain 2: QAVVTQEPSLTVSPGGTVTLTCRSSTGAVTTSNYANWVQQKPGQAPRGLIGGTNKRAPWTPARFSGSLLGGKAALTITGAQAEDEADYYCALWYSNLWVFGGGTKLTVLGGGGSGGGGQVQLVQSGAEVKKPGASVKVSCKASGYTFTSYWMQWVRQAPGQGLEWMGTIYPGDGDTRYTQKFKGRVTITADKSTSTAYMELSSLRSEDTAVYYCARRGIPRLWYFDVWGQGTTVTVSSGGCGGGKVAALKEKVAALKEKVAALKEKVAALKE
heavy: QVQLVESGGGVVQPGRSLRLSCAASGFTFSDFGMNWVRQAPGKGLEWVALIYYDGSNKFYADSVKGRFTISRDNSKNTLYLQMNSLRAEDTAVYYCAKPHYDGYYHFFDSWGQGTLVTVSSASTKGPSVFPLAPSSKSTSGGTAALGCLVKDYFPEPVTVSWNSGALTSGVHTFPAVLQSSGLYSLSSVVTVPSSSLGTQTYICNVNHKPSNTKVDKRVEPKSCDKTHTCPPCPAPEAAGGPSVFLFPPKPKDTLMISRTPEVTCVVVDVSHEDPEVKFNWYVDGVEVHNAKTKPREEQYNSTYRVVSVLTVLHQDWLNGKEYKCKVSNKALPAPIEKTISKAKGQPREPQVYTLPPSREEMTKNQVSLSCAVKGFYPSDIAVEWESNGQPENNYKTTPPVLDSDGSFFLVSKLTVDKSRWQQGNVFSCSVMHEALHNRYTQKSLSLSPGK
light: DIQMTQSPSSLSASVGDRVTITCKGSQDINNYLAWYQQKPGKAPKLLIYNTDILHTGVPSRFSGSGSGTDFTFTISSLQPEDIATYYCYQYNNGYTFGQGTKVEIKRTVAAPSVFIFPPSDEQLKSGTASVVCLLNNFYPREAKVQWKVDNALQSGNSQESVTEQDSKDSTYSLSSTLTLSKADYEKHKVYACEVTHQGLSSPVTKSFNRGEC
notes: Site A B7-H3, Site B CD3, Site C CD8 (TRX2)
In the case of B2, the “EC50 (nM) of killing, CD4+ effector cells, JIMT1-luc target cells, E:T 5:1” value [2] is reported as 0.314 nM, the “EC50 (nM) of killing, CD8+ effector cells, JIMT1-luc target cells, E:T 5:1” value [2] is reported as 0.0051 nM and the “EC50 (nM) of killing, PanT effector cells, JIMT1-luc target cells, E:T 5:1” value [2] is reported as 0.0058 nM. For the same binder, the “EC50 (read off the curve)” value [3] was ~1000 pM.

B3: 5T4 mAb 1/CD3 mAb 2/CD8 mAb 1 Tri-Specific Binding Molecule (other)
chain 1: DIQMTQSPSSLSASVGDRVTITCRASQGISNYLAWFQQKPGKAPKSLIYRANRLQSGVPSRFSGSGSGTDFTLTISSLQPEDVATYYCLQYDDFPWTFGQGTKLEIKGGGSGGGGEVQLVESGGGLVQPGGSLRLSCAASGFTFSTYAMNWVRQAPGKGLEWVGRIRSKYNNYATYYADSVKGRFTISRDDSKNSLYLQMNSLKTEDTAVYYCVRHGNFGNSYVSWFAYWGQGTLVTVSSGGCGGGEVAALEKEVAALEKEVAALEKEVAALEKGGGDKTHTCPPCPAPEAAGGPSVFLFPPKPKDTLMISRTPEVTCVVVDVSHEDPEVKFNWYVDGVEVHNAKTKPREEQYNSTYRVVSVLTVLHQDWLNGKEYKCKVSNKALPAPIEKTISKAKGQPREPQVYTLPPSREEMTKNQVSLWCLVKGFYPSDIAVEWESNGQPENNYKTTPPVLDSDGSFFLYSKLTVDKSRWQQGNVFSCSVMHEALHNHYTQKSLSLSPGK
chain 2: QAVVTQEPSLTVSPGGTVTLTCRSSTGAVTTSNYANWVQQKPGQAPRGLIGGTNKRAPWTPARFSGSLLGGKAALTITGAQAEDEADYYCALWYSNLWVFGGGTKLTVLGGGGSGGGGQVQLVQSGAEVKKPGASVKVSCKASGYTFTSFWMHWVRQAPGQGLEWMGRIDPNRGGTEYNEKAKSRVTMTADKSTSTAYMELSSLRSEDTAVYYCAGGNPYYPMDYWGQGTTVTVSSGGCGGGKVAALKEKVAALKEKVAALKEKVAALKE
heavy: EVQLQQSGAELVKPGASVKLSCTASGFNIKDTYIHFVRQRPEQGLEWIGRIDPANDNTLYASKFQGKATITADTSSNTAYMHLCSLTSGDTAVYYCGRGYGYYVFDHWGQGTTLTVSSASTKGPSVFPLAPSSKSTSGGTAALGCLVKDYFPEPVTVSWNSGALTSGVHTFPAVLQSSGLYSLSSVVTVPSSSLGTQTYICNVNHKPSNTKVDKRVEPKSCDKTHTCPPCPAPEAAGGPSVFLFPPKPKDTLMISRTPEVTCVVVDVSHEDPEVKFNWYVDGVEVHNAKTKPREEQYNSTYRVVSVLTVLHQDWLNGKEYKCKVSNKALPAPIEKTISKAKGQPREPQVYTLPPSREEMTKNQVSLSCAVKGFYPSDIAVEWESNGQPENNYKTTPPVLDSDGSFFLVSKLTVDKSRWQQGNVFSCSVMHEALHNRYTQKSLSLSPGK
light: DVQINQSPSFLAASPGETITINCRTSRSISQYLAWYQEKPGKTNKLLIYSGSTLQSGIPSRFSGSGSGTDFTLTISGLEPEDFAMYYCQQHNENPLTFGAGTKLELRRTVAAPSVFIFPPSDEQLKSGTASVVCLLNNFYPREAKVQWKVDNALQSGNSQESVTEQDSKDSTYSLSSTLTLSKADYEKHKVYACEVTHQGLSSPVTKSFNRGEC
In the case of B3, the “EC50 (nM) of killing, CD4+ effector cells, JIMT1-luc target cells, E:T 5:1” value [4] is reported as 0.0045 nM, the “EC50 (nM) of killing, CD8+ effector cells, JIMT1-luc target cells, E:T 5:1” value [4] is reported as 0.0007 nM and the “EC50 (nM) of killing, PanT effector cells, JIMT1-luc target cells, E:T 5:1” value [4] is reported as 0.0009 nM. For the same binder, the “EC50 (read off the curve)” value [5] was ~1000 pM.

B4: 5T4 mAb 1/CD3 mAb 2 Fast/CD8 mAb 1 Tri-Specific Binding Molecule (other)
chain 1: DIQMTQSPSSLSASVGDRVTITCRASQGISNYLAWFQQKPGKAPKSLIYRANRLQSGVPSRFSGSGSGTDFTLTISSLQPEDVATYYCLQYDDFPWTFGQGTKLEIKGGGSGGGGEVQLVESGGGLVQPGGSLRLSCAASGFTFSTYAMNWVRQAPGKGLEWVGRIRSKYNNYATYYADSVKGRFTISRDDSKNSLYLQMNSLKTEDTAVYYCVRHKNFGNSYVTWFAYWGQGTLVTVSSASTKGEVAACEKEVAALEKEVAALEKEVAALEKGGGDKTHTCPPCPAPEAAGGPSVFLFPPKPKDTLMISRTPEVTCVVVDVSHEDPEVKFNWYVDGVEVHNAKTKPREEQYNSTYRVVSVLTVLHQDWLNGKEYKCKVSNKALPAPIEKTISKAKGQPREPQVYTLPPSREEMTKNQVSLWCLVKGFYPSDIAVEWESNGQPENNYKTTPPVLDSDGSFFLYSKLTVDKSRWQQGNVFSCSVMHEALHNHYTQKSLSLSPGK
chain 2: QAVVTQEPSLTVSPGGTVTLTCRSSTGAVTTSNYANWVQQKPGQAPRGLIGGTNKRAPWTPARFSGSLLGGKAALTITGAQAEDEADYYCALWYSNLWVFGGGTKLTVLGGGGSGGGGQVQLVQSGAEVKKPGASVKVSCKASGYTFTSFWMHWVRQAPGQGLEWMGRIDPNRGGTEYNEKAKSRVTMTADKSTSTAYMELSSLRSEDTAVYYCAGGNPYYPMDYWGQGTTVTVSSASTKGKVAACKEKVAALKEKVAALKEKVAALKE
heavy: B3 heavy
light: B3 light
For B4, the “EC50 (nM) of killing, CD4+ effector cells, JIMT1-luc target cells, E:T 5:1” value [4] was 0.16 nM, the “EC50 (nM) of killing, CD8+ effector cells, JIMT1-luc target cells, E:T 5:1” value [4] was 0.0021 nM and the “EC50 (nM) of killing, PanT effector cells, JIMT1-luc target cells, E:T 5:1” value [4] was 0.0028 nM. For the same binder, the “EC50 (read off the curve)” value [5] was ~500 pM.
